From patent US20250101135A1 (Hoffmann-La Roche, published 2025)

Assays:
[1] = biological target: T1, human CD19 on B cell lymphoma and leukemia cell lines (human, UniProt P15391 20-556); assay: flow cytometry on OCI-Ly18 cells
T1 construct: also called SU-DHL-8; Nalm6
T1 sequence: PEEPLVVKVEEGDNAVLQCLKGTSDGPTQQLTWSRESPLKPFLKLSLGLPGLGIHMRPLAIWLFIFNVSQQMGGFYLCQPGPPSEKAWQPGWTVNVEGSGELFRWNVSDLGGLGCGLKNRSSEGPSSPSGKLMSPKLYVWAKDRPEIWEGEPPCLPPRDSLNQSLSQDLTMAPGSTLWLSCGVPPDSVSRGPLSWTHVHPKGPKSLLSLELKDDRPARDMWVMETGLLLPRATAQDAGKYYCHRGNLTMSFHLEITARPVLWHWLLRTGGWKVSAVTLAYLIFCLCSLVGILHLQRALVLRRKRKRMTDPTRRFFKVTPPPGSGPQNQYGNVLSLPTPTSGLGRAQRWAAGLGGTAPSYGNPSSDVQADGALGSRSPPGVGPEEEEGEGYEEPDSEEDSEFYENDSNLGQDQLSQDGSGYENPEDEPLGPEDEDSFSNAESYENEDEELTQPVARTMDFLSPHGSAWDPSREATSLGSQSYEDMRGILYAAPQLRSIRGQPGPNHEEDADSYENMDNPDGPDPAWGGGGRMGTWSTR
Experimental: (§1) Cells were washed once with 200 μL DPBS and pellets were resuspended. […] Cells were washed twice with 200 μL 4° C. FACS buffer and then resuspended in 50 μL/well DPBS containing 1% formaldehyde. The same or the next day cells were resuspended in 100 μL FACS-buffer and acquired using 5-laser LSR-FORTESSA® (BD Bioscience with DIVA software) or 3-laser Miltenyi Quant Analyzer 10 (Mitenyi Biotec) and Flow Jo (FlowJo X 10.0.7).

[2] = biological target: T1, human CD19 on B cell lymphoma and …; assay: flow cytometry on Nalm6 cells
Experimental: as §1

[3] = biological target: T2, monomeric human CD19 antigen Fc(kih) fusion molecule (human, UniProt P0DOX5 223-449 = IgG part); assay: SPR Biacore T200, captured via anti-human Fab, human CD19-Fc(kih) analyte
T2 construct: also called monomeric CD19-Fc; human CD19-Fc(kih)
Experimental: Anti-human Fab antibody (Biacore, Freiburg/Germany) was directly coupled on a CM5 chip at pH 5.0 using the standard amine coupling kit (Biacore, Freiburg/Germany). The immobilization level was approximately 8000 RU. […] Recombinant human CD19-Fc(kih) was passed at a concentration range from 7.8 to 500 nM (2-fold dilution) with a flow of 30 μL/minutes through the flow cells over 120 seconds. The dissociation was monitored for 120/1800 seconds. Bulk refractive index differences were corrected for by subtracting the response obtained on reference flow cell.
Affinity constants for the interaction were determined by fitting to a 1:1 Langmuir binding.

[4] = biological target: T3, human 4-1BB (CD137) on cells (human, UniProt Q07011 24-255); assay: flow cytometry, activated human PBMC, CD4+ T cells (panel title MFI CD4), PE anti-human IgG Fc secondary
T3 construct: whole, on cells; also called 4-1BB+CD8+; 4-1BB+CD4+
Text: Gates were set on living CD45+CD3+CD4+ or CD45+CD3+CD8+ T cells and MFI of PE-conjugated AffiniPure anti-human IgG IgG Fcγ-fragment-specific goat F(ab′)2 fragment were blotted against the titrated concentration of targeted split trimeric 4-1BB ligand Fc fusion variants.

[5] = biological target: T1, human CD19 on B cell lymphoma and …; assay: flow cytometry on Toledo cells
Experimental: as §1

[6] = biological target: T1, human CD19 on B cell lymphoma and …; assay: flow cytometry on SU-DHL-8 cells
Experimental: as §1

[7] = biological target: T4, human CEA (CEACAM5) on tumor cells (human, UniProt P06731 35-685); assay: flow cytometry on CEA-expressing MKN45 cells
T4 construct: also called MKN45; MKN-45
T4 sequence: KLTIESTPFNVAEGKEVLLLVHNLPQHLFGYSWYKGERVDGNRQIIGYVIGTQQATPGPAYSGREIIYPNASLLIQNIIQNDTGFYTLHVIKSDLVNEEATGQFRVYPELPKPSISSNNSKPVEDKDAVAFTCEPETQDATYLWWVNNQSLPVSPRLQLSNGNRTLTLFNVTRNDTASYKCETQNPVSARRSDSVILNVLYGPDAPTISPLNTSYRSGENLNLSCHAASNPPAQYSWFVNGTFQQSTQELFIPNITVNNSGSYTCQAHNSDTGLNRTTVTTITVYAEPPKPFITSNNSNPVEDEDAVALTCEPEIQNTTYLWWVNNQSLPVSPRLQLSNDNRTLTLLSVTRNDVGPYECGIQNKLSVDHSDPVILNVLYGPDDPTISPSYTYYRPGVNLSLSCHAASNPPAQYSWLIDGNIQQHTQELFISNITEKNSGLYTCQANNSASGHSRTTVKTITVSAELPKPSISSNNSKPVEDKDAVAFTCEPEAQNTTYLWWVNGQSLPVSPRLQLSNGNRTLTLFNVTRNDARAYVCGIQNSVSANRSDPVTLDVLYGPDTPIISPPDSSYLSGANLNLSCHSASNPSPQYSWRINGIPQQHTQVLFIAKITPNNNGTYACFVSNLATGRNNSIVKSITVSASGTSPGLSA
Experimental: Cells were harvested, counted, checked for viability and re-suspended at 2×10⁶ cells/ml in FACS buffer (100 μl PBS 0.1% BSA). […] Binding curves and EC50 values were obtained and calculated using GraphPadPrism5.

T3 sequence (Q07011 24-255): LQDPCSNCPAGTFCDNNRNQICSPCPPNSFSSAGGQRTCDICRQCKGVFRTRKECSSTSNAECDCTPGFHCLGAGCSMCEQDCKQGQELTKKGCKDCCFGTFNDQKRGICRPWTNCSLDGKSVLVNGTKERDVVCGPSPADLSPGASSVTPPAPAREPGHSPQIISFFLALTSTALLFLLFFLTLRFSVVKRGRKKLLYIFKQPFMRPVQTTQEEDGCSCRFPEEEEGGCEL

Binder	EC50 [1] [nM]	EC50 [2] [nM]	Kd [3] [nM]	koff [3] [s⁻¹]	kon [3] [M⁻¹ s⁻¹]	binding result [4]	EC50 [5] [nM]	EC50 [6] [nM]	EC50 [7] [mg/L]
anti-CD19(8B8-018) huIgG1 PGLALA (control G) (antibody, V domains shown) VH: QVQLVQSGAEVKKPGASVKVSCKASGYTFTDYIMHWVRQAPGQGLEWMGYINPYNDGSKYTEKFQGRVTMTSDTSISTAYMELSRLRSDDTAVYYCARGTYYYGSALFDYWGQGTTVTVSS VL: DIVMTQTPLSLSVTPGQPASISCKSSQSLENPNGNTYLNWYLQKPGQSPQLLIYRVSKRFSGVPDRFSGSGSGTDFTLKISRVEAEDVGVYYCLQLTHVPYTFGQGTKLEIKR	0.07	0.1	12.3	0.000261	21200	no binding (tested: about 300 nM)	0.06	0.09	–
Humanized variant 1 of T84.66 IgG (T84.66-LCHA) (antibody, V domains shown, IgG) VH: QVQLVQSGAEVKKPGSSVKVSCKASGFNIKDTYMHWVRQAPGQGLEWMGRIDPANGNSKYVPKFQGRVTITADTSTSTAYMELSSLRSEDTAVYYCAPFGYYVSDYAMAYWGQGTLVTVSS VL: EIVLTQSPATLSLSPGERATLSCRAGESVDIFGVGFLHWYQQKPGQAPRLLIYRASNRATGIPARFSGSGSGTDFTLTISSLEPEDFAVYYCQQTNEDPYTFGQGTKLEIK	–	–	–	–	–	–	–	–	1.5
